In patent publication US20220033515A1 (Genentech, published 2022):
Where “and” joins values, the source holds several entries; their conditions need not be identical. Identical values can stand only once. Like-named read-outs stand apart in the source and are kept apart here.

How the values were obtained:
[1] = biological target: T1, human vascular endothelial growth factor (hVEGF) (human, UniProt P15692-4 27-191); assay: competitive phage ELISA
T1 construct: also called hVEGF-A; human vascular endothelial growth factor A

[2] = biological target: T2, HER2 extracellular domain (Her2-ECD) (human, UniProt P04626 23-652); assay: single-spot competitive phage ELISA
T2 construct: extracellular domain; also called hHER2 extracellular domain (ECD)

hVEGF109 [3] = biological target: T3, hVEGF109 (human, UniProt P15692 214-315); assay: Biacore SPR
T3 construct: range 8-109; also called VEGF (8-109)
T3 sequence (looked up): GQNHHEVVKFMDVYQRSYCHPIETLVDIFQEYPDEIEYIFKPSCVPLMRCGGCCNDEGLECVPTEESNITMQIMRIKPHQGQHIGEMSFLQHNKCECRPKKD

[4] = biological target: T1, human vascular endothelial growth …; assay: competitive phage ELISA; remark: listed apart in the source
hVEGF109 [5] = biological target: T3, hVEGF109; assay: single-spot competitive phage ELISA
[6] = biological target: T2, HER2 extracellular domain (Her2-ECD); assay: ELISA on immobilised protein
hVEGF-D = biological target: T4, hVEGF-D (human, UniProt O43915 93-201); assay: ELISA on immobilised protein
T4 sequence (looked up): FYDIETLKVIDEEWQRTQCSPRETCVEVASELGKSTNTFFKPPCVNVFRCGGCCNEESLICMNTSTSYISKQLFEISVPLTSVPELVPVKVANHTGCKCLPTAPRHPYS

[7] = biological target: T1, human vascular endothelial growth …; assay: ELISA on immobilised protein
hVEGF-C = biological target: T5, hVEGF-C (human, UniProt P49767 103-227); assay: ELISA on immobilised protein
T5 sequence (looked up): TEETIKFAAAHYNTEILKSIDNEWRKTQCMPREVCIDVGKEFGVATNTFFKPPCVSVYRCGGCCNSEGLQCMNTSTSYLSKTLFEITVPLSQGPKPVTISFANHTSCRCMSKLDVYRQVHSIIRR

[8] = biological target: T6, epidermal growth factor receptor extracellular domain (hEGFR) (human, UniProt P00533 25-645); assay: ELISA on immobilised protein
T6 construct: extracellular domain

[9] = biological target: bovine serum albumin (BSA) (bovine, UniProt P02769 25-607); assay: ELISA on immobilised protein
hVEGF165 = biological target: T7, hVEGF165 (human, UniProt P15692-4 27-191); assay: ELISA on immobilised target
T7 construct: also called human VEGF165

murine VEGF (mVEGF) = biological target: T8, murine VEGF (mVEGF) (murine, UniProt Q00731-2 27-190); assay: ELISA on immobilised target
T8 sequence (looked up): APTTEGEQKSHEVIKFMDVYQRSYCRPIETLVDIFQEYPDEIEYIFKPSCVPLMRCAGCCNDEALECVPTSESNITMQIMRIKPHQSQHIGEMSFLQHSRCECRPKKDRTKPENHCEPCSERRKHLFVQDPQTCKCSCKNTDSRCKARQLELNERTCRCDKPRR

hVEGF109 [10] = biological target: T3, hVEGF109; assay: ELISA on immobilised target
[11] = biological target: T9, human death receptor 5 (hDR5) (human, UniProt O14763 56-210); assay: equilibrium KD; method and format (Fab or IgG) not given
T9 construct: also called DR5 long; hDR5-1f

[12] = biological target: T2, HER2 extracellular domain (Her2-ECD); assay: single-spot competitive phage ELISA; remark: listed apart in the source
[13] = biological target: T9, human death receptor 5 (hDR5); assay: competitive phage ELISA
[14] = biological target: T2, HER2 extracellular domain (Her2-ECD); assay: equilibrium KD; method and format (Fab or IgG) not given; HER2, second number of the cell
[15] = biological target: T2, HER2 extracellular domain (Her2-ECD); assay: competitive phage ELISA

B1: 3-4 (scFv, V domains shown, not shown: large carriers; small tags and cut ends)
VH: not shown
VL: DIQMTQSPSSLSASVGDRVTITCRASQEVYSYVAWYQQKPGKAPKLLIYPASSLYSGVPSRFSGSGSGTDFTLTISSLQPEDFATYYCQQGFWIGPPTFGQGTKVEIK
notes: also called c3-4
[1]
  IC50: 0.032 µM
[2]
  OD450 without competitor: 0.05

B2: 3-7 (antibody, V domains shown)
VH: not shown
VL: DIQMTQSPSSLSASVGDRVTITCRASQYIWRYVAWYQQKPGKAPKLLIYWGSSLYSGVPSRFSGSGSGTDFTLTISSLQPEDFATYYCQQGLWYSPPTFGQGTKVEIK
notes: also called 3-7 hIgG; 3-7 anti-hVEGF
[1]
  IC50: 0.016 µM
hVEGF109 [3]
  Kd: 0.003 µM and 0.007 µM
  koff: 0.0025 s⁻¹ and 0.0042 s⁻¹
  kon: 800000 M⁻¹ s⁻¹ and 580000 M⁻¹ s⁻¹

B3: H10 (scFv, V domains shown)
VH: not shown
VL: DIQMTQSPSSLSASVGDRVTITCRASQDVFTSVAWYQQKPGKAPKLLIYDASYLYSGVPSRFSGSGSGTDFTLTISSLQPEDFATYYCQQRYIWAPPTFGQGTKVEIK
[4]
  IC50: 0.17 µM
[2]
  OD450 without competitor: 0.04
hVEGF109 [5]
  % signal, SSC +/- 50 or 100nM VEGF: 49%
  OD450 without competitor: 2.08

B4: H7 (scFv, V domains shown)
VH: not shown
VL: DIQMTQSPSSLSASVGDRVTITCRASQNVWDWVAWYQQKPGKAPKLLIYPASSLYSGVPSRFSGSGSGTDFTLTISSLQPEDFATYYCQQGWYIAPPTFGQGTKVEIK
notes: copies: 1 + 1
[4]
  IC50: 0.06 µM

B5: 4-1 IgG (antibody, V domains shown)
VH: not shown
VL: DIQMTQSPSSLSASVGDRVTITCRASQDIWNRRALAWYQQKPGKAPKLLIYEGSSLYSGVPSRFSGSGSGTDFTLTISSLQPEDFATYYCQQGGSYSSPPTFGQGTKVEIKR
notes: not shown: rest of the human IgG heavy chain constant region
[6]
  binding result: no binding (tested: 100 or 500 nM (text))
hVEGF-D
  binding result: no binding (tested: 100 or 500 nM (text))
[7]
  binding result: no binding (tested: 100 or 500 nM (text))
hVEGF-C
  binding result: no binding (tested: 100 or 500 nM (text))
[8]
  binding result: no binding (tested: 100 or 500 nM (text))
[9]
  binding result: no binding (tested: 100 or 500 nM (text))
hVEGF165
  binding result: no binding (tested: 100 nM (text))
Murine VEGF (mVEGF)
  binding result: no binding (tested: 100 nM (text))
hVEGF109 [10]
  binding result: no binding (tested: 100 nM (text))

B6: 4-1 (antibody, V domains shown)
VH: not shown
VL: DIQMTQSPSSLSASVGDRVTITCRASQDIWNRRALAWYQQKPGKAPKLLIYEGSSLYSGVPSRFSGSGSGTDFTLTISSLQPEDFATYYCQQGGSYSSPPTFGQGTKVEIKR
notes: also called 4-1 anti-hDR5
[11]
  Kd: 0.12 µM

B7: 4-5 IgG (antibody, V domains shown)
VH: not shown
VL: DIQMTQSPSSLSASVGDRVTITCRASQNVGRPVAWYQQKPGKAPKLLIYGGSSLYSGVPSRFSGSGSGTDFTLTISSLQPEDFATYYCQQYGSFGTPPTFGQGTKVEIKR
notes: as for B5
[6]
  binding result: no binding (tested: 100 or 500 nM (text))
hVEGF-D
  binding result: no binding (tested: 100 or 500 nM (text))
[7]
  binding result: no binding (tested: 100 or 500 nM (text))
hVEGF-C
  binding result: no binding (tested: 100 or 500 nM (text))
[8]
  binding result: no binding (tested: 100 or 500 nM (text))
[9]
  binding result: no binding (tested: 100 or 500 nM (text))
hVEGF165
  binding result: no binding (tested: 100 nM (text))
Murine VEGF (mVEGF)
  binding result: no binding (tested: 100 nM (text))
hVEGF109 [10]
  binding result: no binding (tested: 100 nM (text))

B8: 4-5 (antibody, V domains shown)
VH: not shown
VL: DIQMTQSPSSLSASVGDRVTITCRASQNVGRPVAWYQQKPGKAPKLLIYGGSSLYSGVPSRFSGSGSGTDFTLTISSLQPEDFATYYCQQYGSFGTPPTFGQGTKVEIKR
[11]
  Kd: 0.15 µM

B9: H8 (scFv, V domains shown)
VH: not shown
VL: DIQMTQSPSSLSASVGDRVTITCRASQEIFPYYVAWYQQKPGKAPKLLIYLGSSLYSGVPSRFSGSGSGTDFTLTISSLQPEDFATYYCQQGWDGPPTFGQGTKVEIK
[4]
  IC50: 0.226 µM
[2]
  OD450 without competitor: 0.09
hVEGF109 [5]
  % signal, SSC +/- 50 or 100nM VEGF: 71.2%
  OD450 without competitor: 2.58

B10: H11 (scFv, V domains shown)
VH: not shown
VL: DIQMTQSPSSLSASVGDRVTITCRASQDIMLGSVAWYQQKPGKAPKLLIYWGSFLYSGVPSRFSGSGSGTDFTLTISSLQPEDFATYYCQQHYTTPPTFGQGTKVEIK
[12]
  OD450 without competitor: 2.79

B11: 4-2 (scFv, V domains shown)
VH: not shown
VL: DIQMTQSPSSLSASVGDRVTITCRASQRINSHTVAWYQQKPGKAPKLLIYWGSHLYSGVPSRFSGSGSGTDFTLTISSLQPEDFATYYCQQYSNRTPPTFGQGTKVEIK
[13]
  IC50: > 1 µM

B12: bD1 (antibody, V domains shown)
VH: not shown
VL: DIQMTQSPSSLSASVGDRVTITCRASQNVSKHVAWYQQKPGKAPKLLIYWGSYLYSGVPSRFSGSGSGTDFTLTISSLQPEDFATYYCQQSYSGPPTFGQGTKVEIKR
[14]
  Kd: 0.2 µM
[11]
  Kd: 14 µM
[15]
  IC50: 0.03 µM

B13: D1 hIgG (antibody, V domains shown)
VH: not shown
VL: DIQMTQSPSSLSASVGDRVTITCRASQNVSKHVAWYQQKPGKAPKLLIYWGSYLYSGVPSRFSGSGSGTDFTLTISSLQPEDFATYYCQQSYSGPPTFGQGTKVEIKR
notes: also called bD1 IgG; D1 (anti-hDR5/Her2); not shown: rest of the human IgG heavy chain constant region
hVEGF-D
  binding result: no binding (tested: 100 or 500 nM (text))
[7]
  binding result: no binding (tested: 100 or 500 nM (text))
hVEGF-C
  binding result: no binding (tested: 100 or 500 nM (text))
[8]
  binding result: no binding (tested: 100 or 500 nM (text))
[9]
  binding result: no binding (tested: 100 or 500 nM (text))
hVEGF165
  binding result: no binding (tested: 100 nM (text))
Murine VEGF (mVEGF)
  binding result: no binding (tested: 100 nM (text))
hVEGF109 [10]
  binding result: no binding (tested: 100 nM (text))

B14: 4-6 (scFv, V domains shown)
VH: not shown
VL: DIQMTQSPSSLSASVGDRVTITCRASQSVSSAVAWYQQKPGKAPKLLIYSASSLYSGVPSRFSGSRSGTDFTLTISSLQPEDFATYYCQQYSSSPPTFGQGTKVEIK
[13]
  IC50: 0.016 µM

B15: bD2 (antibody, V domains shown)
VH: not shown
VL: DIQMTQSPSSLSASVGDRVTITCRASQNIRNGGGLAWYQQKPGKAPKLLIYSASFLYSGVPSRFSGSGSGTDFTLTISSLQPEDFATYYCQQHYTTPPTFGQGTKVEIKR
[14]
  Kd: 0.1 µM
[11]
  Kd: 67 µM
[15]
  IC50: 0.017 µM

B16: bD2 IgG (antibody, V domains shown)
VH: not shown
VL: DIQMTQSPSSLSASVGDRVTITCRASQNIRNGGGLAWYQQKPGKAPKLLIYSASFLYSGVPSRFSGSGSGTDFTLTISSLQPEDFATYYCQQHYTTPPTFGQGTKVEIKR
notes: as for B5
hVEGF-D
  binding result: no binding (tested: 100 or 500 nM (text))
[7]
  binding result: no binding (tested: 100 or 500 nM (text))
hVEGF-C
  binding result: no binding (tested: 100 or 500 nM (text))
[8]
  binding result: no binding (tested: 100 or 500 nM (text))
[9]
  binding result: no binding (tested: 100 or 500 nM (text))
hVEGF165
  binding result: no binding (tested: 100 nM (text))
Murine VEGF (mVEGF)
  binding result: no binding (tested: 100 nM (text))
hVEGF109 [10]
  binding result: no binding (tested: 100 nM (text))

B17: 4-4 (scFv, V domains shown)
VH: not shown
VL: DIQMTQSPSSLSASVGDRVTITCRASQVVSMTVAWYQQKPGKAPKLLIYGASSLYSGVPSRFSGSGSGTDFTLTISSLQPEDFATYYCQQYGSYSAPPTFGQGTKVEIK
[13]
  IC50: > 1 µM
